Laboratory results: paper PMC9993015
Where two headings read alike, the source gives them in different places. One block for each substance: values may come before it.

Columns and labels:
[1] = biological target: histone H3 from calf thymus histones (UniProt P68432); assay: GST pull-down, immunoblot with α-H3, band level printed under lane; settings: calf thymus histones (CTH); CTH input 5%
[2] = biological target: histone H3 (Homo sapiens) (UniProt P68431); settings: cited from earlier work
[3] = biological target: histone H4 (Homo sapiens) (UniProt P62805); settings: cited from earlier work
[4] = biological target: histone H3 (Homo sapiens) (UniProt P68431); settings: cited from earlier work; remark: listed apart in the source

- response [1]: 0.3
Substance: GST-ING3PHD (PHD domain of the H3K4me3 reader ING3) W385A

Substance: EED WD40 (from UniProt O75530)
- Kd [2]: > 400 µM

Substance: 53BP1 tandem TUDOR domain (from UniProt Q12888)
- Kd [3]: 20 µM
- Kd [4]: 2000 µM
